Test [1] has as its target T1, Recombinant human GhR-Fc protein (Homo sapiens, UniProt P10912).
T1 construct: purchased R&D Systems
Briefly: Binding activity of hGhR binding peptide by surface plasmon resonance (SPR), Biacore T200, single-cycle kinetics. To be noted: human GhR-Fc immobilized on CM5 chip, KD calculated from ka and kd. How it is done: (§1) SPR assay was performed using Biacore T200 (cytiva: Former GE Healthcare). After the equilibration of Series S Sensor Chip CM5 (produced by cytiva: Former GE Healthcare) with Running Buffer (HBS-EP with 1% (v/v) DMSO), an EDC/NHS mixture was injected at a flow rate of 10 μL/min for 7 minutes to thereby activate the functional groups on sensor chip. Recombinant human GhR-Fc protein (R&D Systems) in 10 mM Acetate (pH4.0) was injected immobilized to at a flow rate of 5 μL/min. It took 7 minutes to immobilize the GhR on the substrate surfaces of the sensor chip. Then Ethanolamine was injected at a flow rate of 10 μL/min for 7 minutes. 1M Ethanolamine (aq.) was injected at a flow rate of 10 μL/min for 420 seconds for capping.
(§2) Using these Peptide Samples, kinetics of peptides against human GhR-Fc protein were measured. The method adopted for sample measurement was a single-cycle kinetics method. The analysis was conducted using the evaluation software provided with Biacore T200. A DMSO correction curve obtained by solvent correction measurements was applied for the analysis. Kinetics fitting was done on the difference data obtained by subtracting the baseline data from sample measurement data. KD values were calculated based on the association rate constant (ka) and dissociation rate constant (kd).
Furthermore, “obs. m/z [M+2H]2+” indicates the ESI-MS(+) observed value. Unless otherwise specified, this is bivalent ([M+2H]^2+).

Test [2] deals with T2, Recombinant human GhR-Fc protein (R&D Systems) (human, UniProt P10912 19-264, limits assumed).
T2 construct: Bought from R&D Systems; Amine-coupled to a CM5 chip in the SPR assay; also called hGhR; recombinant human GhR protein fused to Fc portion of human IgG; not shown: Fc portion of human IgG
T2 sequence (looked up): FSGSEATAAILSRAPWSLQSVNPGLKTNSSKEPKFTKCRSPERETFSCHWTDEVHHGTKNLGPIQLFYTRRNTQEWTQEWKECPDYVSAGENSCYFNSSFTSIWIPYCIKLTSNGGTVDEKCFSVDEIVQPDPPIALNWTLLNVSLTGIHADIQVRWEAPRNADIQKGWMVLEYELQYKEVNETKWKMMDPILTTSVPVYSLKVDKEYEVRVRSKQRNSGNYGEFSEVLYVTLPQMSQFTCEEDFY
Briefly: SPR, Biacore T200, single-cycle kinetics, GhR-Fc immobilised on CM5. As for the experimental part: as §1, with “capping. 10 mM Peptides in DMSO were diluted to obtain 10 uM with Running Buffer, and prepared 100 nM, 50 nM, 25 nM, 10 nM, 5 nM of each peptide solutions (Peptide Samples).” for “capping.”
as §2
For orientation: Surface plasmon resonance follows binding to a sensor surface in real time, without labels.

A word on the Kd: it is the concentration at which binding is half-saturated.

Starred links: 1 amine or outer side, 2 acyl side, 3 side chain; linkers in the order of their positions; H or OH if unused. Positions of bridges follow the written chain, without caps; N, C: chain ends. Non-standard residues stand in square brackets, D forms with d. Residues, ends and D or L forms follow the SMILES beside them. Groups on a side chain read outwards from the residue. *: point of attachment. X8 = NC(=O)[C@H](CCCCN*)NC(=O)COCCOCCNC(=O)COCCOCCNC(=O)CC[C@H](NC(=O)CC[C@H](NC(=O)CCCCCCCCCCCCCC(=O)O)C(=O)O)C(=O)O; A4pipaa = 4-amino-1-(carboxymethyl)piperidine-4-carboxylic acid, O=C(C1(N[*:1])CCN(CC(=O)[*:3])CC1)[*:2]; X3 = NC(=O)[C@H](CCCCN*)NC(=O)CC[C@H](NC(=O)CC[C@H](NC(=O)CCCCCCCCCCCCCCC(=O)O)C(=O)O)C(=O)O; X6 = NC(=O)[C@H](CCCCN*)NC(=O)CC[C@H](NC(=O)CC[C@H](NC(=O)CCCCCCCCCCCCCC(=O)O)C(=O)O)C(=O)O; Trp(1-CH2CO) = O=C([C@H](Cc1cn(CC(=O)[*:3])c2ccccc12)N[*:1])[*:2]; Trp(5-OMe) = COc1ccc2[nH]cc(C[C@H](N)C(=O)O)c2c1; Butanoyl(4-(4-I-phenyl)) = O=C(CCCc1ccc(I)cc1)*; Trp(5-OH) = N[C@@H](Cc1c[nH]c2ccc(O)cc12)C(=O)O; Phe(4-COOH) = N[C@@H](Cc1ccc(C(=O)O)cc1)C(=O)O; Piperazinyl(4-CH2COOH) = O=C(O)CN1CCN(*)CC1; X7 = O=C(O)CN1CCC(N[*:1])(C(=O)[*:2])CC1; C16 diacid = O=C(O)CCCCCCCCCCCCCCC(=O)*; γGlu = O=C(O)[C@H](CCC(=O)[*:2])N[*:1]; NMeK = CN[C@@H](CCCCN)C(=O)O; Aib = CC(C)(N)C(=O)O; CO = O=C([*:1])[*:2]

T1 sequence (P10912 with tags, fused parts or gaps limits assumed): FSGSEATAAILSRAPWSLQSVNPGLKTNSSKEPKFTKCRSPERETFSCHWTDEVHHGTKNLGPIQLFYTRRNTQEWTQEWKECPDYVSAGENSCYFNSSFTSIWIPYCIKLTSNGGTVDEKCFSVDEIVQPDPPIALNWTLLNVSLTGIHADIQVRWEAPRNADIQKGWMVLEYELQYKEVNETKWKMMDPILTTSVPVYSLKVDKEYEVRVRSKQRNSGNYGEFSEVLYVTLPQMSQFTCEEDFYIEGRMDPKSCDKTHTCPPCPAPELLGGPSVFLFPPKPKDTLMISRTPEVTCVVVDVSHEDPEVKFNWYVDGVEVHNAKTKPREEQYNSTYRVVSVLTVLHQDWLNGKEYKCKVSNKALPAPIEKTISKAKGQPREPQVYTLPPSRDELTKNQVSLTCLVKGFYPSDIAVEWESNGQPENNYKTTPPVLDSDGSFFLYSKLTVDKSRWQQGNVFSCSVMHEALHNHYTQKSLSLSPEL

With `CC(C)[C@@H]1NC(=O)[C@H](C(C)C)NC(=O)[C@@H]2CCCCNC(=O)Cn3cc(c4ccccc43)C[C@H](NC(=O)[C@H](CC(N)=O)NC(=O)[C@H](CO)NC1=O)C(=O)N[C@@H](Cc1ccc(C(=O)O)cc1)C(=O)N[C@@H](CCCCN)C(=O)N[C@@H](Cc1c[nH]c3ccc(O)cc13)C(=O)NC(C)(C)C(=O)N[C@@H](C(C)C)C(=O)N[C@H](C(=O)NCCCC[C@H](NC(=O)CC[C@H](NC(=O)CC[C@H](NC(=O)CCCCCCCCCCCCCC(=O)O)C(=O)O)C(=O)O)C(N)=O)CSCC(=O)N[C@@H](Cc1ccc(C(=O)O)cc1)C(=O)N2C` [Compound 60] ({CH2CO}-[Phe(4-COOH)][NMeK]VVSN[Trp(1-CH2CO)][Phe(4-COOH)]K[Trp(5-OH)][Aib]VC-X6; lactam 2-7; thioether N-13), in test [1], the Kd is 3.1 nM. With `CC(C)[C@@H]1NC(=O)[C@H](C(C)C)NC(=O)[C@@H]2CCCCNC(=O)Cn3cc(c4ccccc43)C[C@H](NC(=O)[C@H](CC(N)=O)NC(=O)[C@H](CO)NC1=O)C(=O)N[C@@H](Cc1ccc(C(=O)O)cc1)C(=O)N[C@@H](CCCCN)C(=O)N[C@@H](Cc1c[nH]c3ccc(O)cc13)C(=O)NC(C)(C)C(=O)N[C@@H](C(C)C)C(=O)N[C@H](C(=O)NCCCC[C@H](NC(=O)CC[C@H](NC(=O)CC[C@H](NC(=O)CCCCCCCCCCCCCCC(=O)O)C(=O)O)C(=O)O)C(N)=O)CSCC(=O)N[C@@H](Cc1ccc(O)cc1)C(=O)N2C` [Compound 24] ({CH2CO}-Y[NMeK]VVSN[Trp(1-CH2CO)][Phe(4-COOH)]K[Trp(5-OH)][Aib]VC-X3; lactam 2-7; thioether N-13), the Kd in test [1] is 2.59 nM. Still for that read-out and setting: to `COc1ccc2[nH]cc(C[C@@H]3NC(=O)[C@H](CC(N)=O)NC(=O)[C@H](CO)NC(=O)[C@H](C(C)C)NC(=O)[C@H](C(C)C)NC(=O)[C@H](CCCCNC(=O)CC[C@H](NC(=O)CC[C@H](NC(=O)CCCc4ccc(I)cc4)C(=O)O)C(=O)O)N(C)C(=O)[C@H](Cc4ccc(O)cc4)NC(=O)CSC[C@@H](C(=O)NCC(=O)N4CCC[C@H]4C(=O)N[C@H](CO)C(=O)N[C@H](CO)C(=O)N[C@H](CO)C(N)=O)NC(=O)[C@H](C(C)C)NC(=O)C4(CCN(CC(=O)O)CC4)NC(=O)[C@H](Cc4c[nH]c5ccc(O)cc45)NC(=O)[C@H](CCCCN)NC(=O)[C@H](Cc4ccc(C(=O)O)cc4)NC3=O)c2c1` [Compound 52] ({CH2CO}-Y[NMeK]([γGlu-γGlu-Butanoyl(4-(4-I-phenyl))])VVSN[Trp(5-OMe)][Phe(4-COOH)]K[Trp(5-OH)][X7]VCGP[dS][dS][dS]-NH2; thioether N-13) belongs 5.47 nM; to `COc1ccc2[nH]cc(C[C@@H]3NC(=O)[C@H](CC(N)=O)NC(=O)[C@H](CO)NC(=O)[C@H](C(C)C)NC(=O)[C@H](C(C)C)NC(=O)[C@H](CCCCNC(=O)CC[C@H](NC(=O)CC[C@H](NC(=O)CCCc4ccc(I)cc4)C(=O)O)C(=O)O)N(C)C(=O)[C@H](Cc4ccc(O)cc4)NC(=O)CSC[C@@H](C(=O)NCC(=O)N4CCC[C@H]4C(=O)N[C@H](CO)C(=O)N[C@H](CO)C(=O)N[C@H](CO)C(N)=O)NC(=O)[C@H](C(C)C)NC(=O)C(C)(C)NC(=O)[C@H](Cc4c[nH]c5ccc(O)cc45)NC(=O)[C@H](CCCCNC(=O)N4CCN(CC(=O)O)CC4)NC(=O)[C@H](Cc4ccc(C(=O)O)cc4)NC3=O)c2c1` [Compound 49] ({CH2CO}-Y[NMeK]([γGlu-γGlu-Butanoyl(4-(4-I-phenyl))])VVSN[Trp(5-OMe)][Phe(4-COOH)]K([CO-Piperazinyl(4-CH2COOH)])[Trp(5-OH)][Aib]VCGP[dS][dS][dS]-NH2; thioether N-13), 6.31 nM.

As for `CC(C)[C@@H]1NC(=O)[C@H](C(C)C)NC(=O)[C@@H]2CCCCNC(=O)Cn3cc(c4ccccc43)C[C@H](NC(=O)[C@H](CC(N)=O)NC(=O)[C@H](CO)NC1=O)C(=O)N[C@@H](Cc1ccc(C(=O)O)cc1)C(=O)N[C@@H](CCCCN)C(=O)N[C@@H](Cc1c[nH]c3ccc(O)cc13)C(=O)NC(C)(C)C(=O)N[C@@H](C(C)C)C(=O)N[C@H](C(=O)NCCCC[C@H](NC(=O)COCCOCCNC(=O)COCCOCCNC(=O)CC[C@H](NC(=O)CC[C@H](NC(=O)CCCCCCCCCCCCCC(=O)O)C(=O)O)C(=O)O)C(N)=O)CSCC(=O)N[C@@H](Cc1ccc(C(=O)O)cc1)C(=O)N2C` [Compound 63] ({CH2CO}-[Phe(4-COOH)][NMeK]VVSN[Trp(1-CH2CO)][Phe(4-COOH)]K[Trp(5-OH)][Aib]VC-X8; lactam 2-7; thioether N-13), the dissociation constant Kd in test [1] was 3.7 nM. Take {CH2CO}-Y[NMeK]VVSN[Trp(1-CH2CO)][Phe(4-COOH)]K[Trp(5-OH)][Aib]VCK([Glu-Glu-Butanoyl(4-(4-I-phenyl))])-NH2 (thioether N-13; lactam 2-7, also called Compound No. 26) [GhR_PD_216]: the Kd in test [2] came to 1.59 nM. Still for that read-out and setting: to {CH2CO}-[Phe(4-COOH)][NMeK]VVSN[Trp(1-CH2CO)]YK[Trp(5-OH)][Aib]VCK([Glu-Glu-Butanoyl(4-(4-I-phenyl))])-NH2 (thioether N-13; lactam 2-7, also called Compound No. 21) [GhR_PD_215] belongs 1.07 nM.

{CH2CO}-Y[NMeK]VVSN[Trp(1-CH2CO)][Phe(4-COOH)]K[Trp(5-OH)][Aib]VCK([Glu-Glu-C16 diacid])-NH2 (thioether N-13; lactam 2-7, also called Compound No. 24) [GhR_PD_232]: the Kd in test [2] is 2.59 nM. Same read-out and setting: the result for {CH2CO}-[Phe(4-COOH)][NMeK]VVSN[Trp(1-CH2CO)]YK[Trp(5-OH)][Aib]VCK([Glu-Glu-C16 diacid])-NH2 (thioether N-13; lactam 2-7, also called Compound No. 19) [GhR_PD_231] reads 1.93 nM; that for {CH2CO}-Y[NMeK]VVSN[Trp(1-CH2CO)]YK[Trp(5-OH)][Aib]VCG-NH2 (thioether N-13; lactam 2-7 via G, also called Compound No. 2) [GhR_PD_140], 1.22 nM.

B1: GhR_PD_139 (peptide)
peptide: {CH2CO}-Y[NMeK]VVSN[Trp(1-CH2CO)]YK[Trp(5-OH)][Aib]VCG-NH2
modifications: thioether N-13; lactam 2-7
SMILES: CC(C)[C@@H]1NC(=O)[C@H](C(C)C)NC(=O)[C@@H]2CCCCNC(=O)Cn3cc(c4ccccc43)C[C@H](NC(=O)[C@H](CC(N)=O)NC(=O)[C@H](CO)NC1=O)C(=O)N[C@@H](Cc1ccc(O)cc1)C(=O)N[C@@H](CCCCN)C(=O)N[C@@H](Cc1c[nH]c3ccc(O)cc13)C(=O)NC(C)(C)C(=O)N[C@@H](C(C)C)C(=O)N[C@H](C(=O)NCC(N)=O)CSCC(=O)N[C@@H](Cc1ccc(O)cc1)C(=O)N2C
notes: also called Compound No. 1
Consider B1, for which the Kd in test [2] was 0.7 nM.

For the molecule {CH2CO}-Y[NMeK]VVSN[Trp(1-CH2CO)]YK[Trp(5-OH)][Aib]VCK([Glu-Glu-Butanoyl(4-(4-I-phenyl))])-NH2 (thioether N-13; lactam 2-7, also called Compound No. 32) [GhR_PD_246], the dissociation constant (Kd) in test [2] worked out at 0.98 nM. The same measure, in the same setting: to {CH2CO}-Y[NMeK]VVSN[Trp(1-CH2CO)]YK[Trp(5-OH)][A4pipaa]VCK([Glu-Glu-C16 diacid])-NH2 (thioether N-13; lactam 2-7, also called Compound No. 29) [GhR_PD_237] belongs 1.57 nM. For the molecule {CH2CO}-[Phe(4-COOH)][NMeK]VVSN[Trp(1-CH2CO)]YK[Trp(5-OH)][A4pipaa]VCK([Glu-Glu-C16 diacid])-NH2 (thioether N-13; lactam 2-7, also called Compound No. 18) [GhR_PD_238], the Kd in test [2] came out at 2.4 nM. As to {CH2CO}-Y[NMeK]VVSN[Trp(1-CH2CO)][Phe(4-COOH)]K[Trp(5-OH)][A4pipaa]VCK([Glu-Glu-C16 diacid])-NH2 (thioether N-13; lactam 2-7, also called Compound No. 23) [GhR_PD_239], the Kd in test [2] stood at 2.29 nM.

The values are drawn from US20250332264A1, “GhR-BINDING PEPTIDE AND COMPOSITION COMPRISING SAME” (priority 2021, published 2025).
